From publication PMC13546301, “Ternary Neurexin-T178-PTPR complexes represent a pre-synaptic core-module of neuronal synapse organization” (Nature Communications, 2026)

Molecular target: T1, V5-tagged PTPRS (UniProt B0V2N1 30-1907)
T1 construct: Receptor-type tyrosine-protein phosphatase S; cDNA GenBank BC083188.1; also called PTPRSV5; source: tsA201 cells, transfected, CL-91-solubilised membrane fraction; not shown: V5, C-terminal, kept
Test: affinity purification with mass spectrometry; anti-V5 APs from tsA201 cells expressing NRX1A and PTPRS-V5 with or without T178B; normalized abundance of NRX1A by MS, two independent APs with two controls
Settings: partners not purified

T1 sequence (B0V2N1 30-1907): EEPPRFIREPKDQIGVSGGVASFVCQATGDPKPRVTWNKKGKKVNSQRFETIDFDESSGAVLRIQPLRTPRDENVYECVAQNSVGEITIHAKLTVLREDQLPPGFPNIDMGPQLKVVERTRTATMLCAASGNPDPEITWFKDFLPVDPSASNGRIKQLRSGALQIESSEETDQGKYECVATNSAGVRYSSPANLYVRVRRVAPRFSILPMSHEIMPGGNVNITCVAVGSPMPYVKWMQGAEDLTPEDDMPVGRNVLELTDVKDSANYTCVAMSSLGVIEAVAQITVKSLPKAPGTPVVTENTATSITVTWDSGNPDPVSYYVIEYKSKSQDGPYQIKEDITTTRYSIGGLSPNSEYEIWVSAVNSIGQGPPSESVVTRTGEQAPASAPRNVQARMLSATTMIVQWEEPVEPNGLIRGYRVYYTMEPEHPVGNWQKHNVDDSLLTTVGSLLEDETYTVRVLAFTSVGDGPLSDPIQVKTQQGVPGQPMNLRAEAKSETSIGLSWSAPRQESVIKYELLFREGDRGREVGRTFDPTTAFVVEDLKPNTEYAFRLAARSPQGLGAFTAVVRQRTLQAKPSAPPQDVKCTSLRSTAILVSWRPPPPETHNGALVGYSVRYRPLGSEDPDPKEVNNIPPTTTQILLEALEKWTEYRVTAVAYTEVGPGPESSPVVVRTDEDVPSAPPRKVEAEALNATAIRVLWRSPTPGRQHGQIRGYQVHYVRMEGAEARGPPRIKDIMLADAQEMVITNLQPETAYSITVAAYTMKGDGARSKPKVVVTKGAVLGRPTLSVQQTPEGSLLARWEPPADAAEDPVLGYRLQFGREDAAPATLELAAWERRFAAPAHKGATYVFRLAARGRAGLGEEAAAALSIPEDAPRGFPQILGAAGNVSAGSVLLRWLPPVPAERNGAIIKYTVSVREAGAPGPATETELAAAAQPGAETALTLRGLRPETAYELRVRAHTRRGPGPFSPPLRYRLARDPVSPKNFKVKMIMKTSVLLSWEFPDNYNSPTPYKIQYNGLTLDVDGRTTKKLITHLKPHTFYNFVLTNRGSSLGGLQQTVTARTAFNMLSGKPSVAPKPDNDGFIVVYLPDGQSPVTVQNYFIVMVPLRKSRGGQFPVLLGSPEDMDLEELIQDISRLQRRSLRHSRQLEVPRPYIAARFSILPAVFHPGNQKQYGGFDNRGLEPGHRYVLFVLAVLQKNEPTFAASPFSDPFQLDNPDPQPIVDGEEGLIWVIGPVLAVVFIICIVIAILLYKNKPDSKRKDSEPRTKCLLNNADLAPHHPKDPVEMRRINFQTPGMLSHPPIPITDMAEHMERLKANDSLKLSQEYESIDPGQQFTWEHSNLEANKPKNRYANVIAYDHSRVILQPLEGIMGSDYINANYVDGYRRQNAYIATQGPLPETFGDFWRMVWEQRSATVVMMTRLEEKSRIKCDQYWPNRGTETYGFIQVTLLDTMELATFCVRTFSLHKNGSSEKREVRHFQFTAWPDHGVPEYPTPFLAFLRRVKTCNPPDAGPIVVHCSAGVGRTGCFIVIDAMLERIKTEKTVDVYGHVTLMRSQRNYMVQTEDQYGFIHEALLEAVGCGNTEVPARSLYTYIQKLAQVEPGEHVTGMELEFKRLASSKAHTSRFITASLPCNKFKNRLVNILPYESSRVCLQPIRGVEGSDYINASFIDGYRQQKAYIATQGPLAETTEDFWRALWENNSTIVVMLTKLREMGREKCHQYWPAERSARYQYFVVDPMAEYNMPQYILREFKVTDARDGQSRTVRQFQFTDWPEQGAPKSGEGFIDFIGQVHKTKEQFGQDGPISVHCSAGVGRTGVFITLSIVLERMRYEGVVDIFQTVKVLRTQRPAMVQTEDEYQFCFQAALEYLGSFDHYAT

fold increase of the interaction with T178B against pairwise expression without T178B: 10 fold
B1: HA-tagged NRX1A (natural protein)
chain: not shown
notes: Neurexin-1-alpha; in pCAG, from Addgene (#58622); also called NRX1A-HA; source: tsA201 cells, transfected, CL-91-solubilised membrane fraction
